We go through 27 molecules from paper PMC10786891, “Massively parallel profiling of RNA-targeting CRISPR-Cas13d”.

Positions count from the first letter of the chain named. Names may count otherwise.

Sequences and labels used below:
B1: target 1 insU 3' of 20,insA 3' of 2 (mixed)
RNA 1: CACCCGUGCAAAAAUGCAGGGGUCUAAAACUGAGCGGAUAACCUCUCUAUGG
RNA 2: GGGAAUGGAUCCACAUCUACGAAUUCGUACCAUUAGAGAGGUUAUCCGCUCAACCGAGAUCGGAAGAGCACACGU
B2: target 1 insA 3' of 10,insA 3' of 6 (mixed)
RNA 1: B1 RNA 1
RNA 2: GGGAAUGGAUCCACAUCUACGAAUUCGUACCAUAGAGAGGUUAAUCCAGCUCACCGAGAUCGGAAGAGCACACGU
B3: target 1 U10G,U11G (mixed)
RNA 1: B1 RNA 1
RNA 2: GGGAAUGGAUCCACAUCUACGAAUUCGUACCAUAGAGAGGGGAUCCGCUCACCGAGAUCGGAAGAGCACACGU
B4: target 3 C16U,U22C (mixed)
RNA 1: CACCCGUGCAAAAUUGCAGGGGUCUAAAACGACCUGAAUAUUUCAGAUCAAA
RNA 2: GGGAAUGGAUCCACAUCUACGAAUUCGUUCUUGAUUUGAAAUAUUCAGGUCUGCAGAUCGGAAGAGCACACGU
B5: target 3 insU 3' of 22,insA 3' of 2 (mixed)
RNA 1: B4 RNA 1
RNA 2: GGGAAUGGAUCCACAUCUACGAAUUCGUUUUUUGAUCUGAAAUAUUCAGGUACUGCAGAUCGGAAGAGCACACGU
B6: target 3 insC 3' of 4,insG 3' of 2 (mixed)
RNA 1: B4 RNA 1
RNA 2: GGGAAUGGAUCCACAUCUACGAAUUCGUUUUUGAUCUGAAAUAUUCAGCGUGCUGCAGAUCGGAAGAGCACACGU
B7: target 3 insC 3' of 22,insU 3' of 6 (mixed)
RNA 1: B4 RNA 1
RNA 2: B5 RNA 2 with U31C, A48U, G49A, U51G, A52U
B8: target 3 insC 3' of 22,insA 3' of 21 (mixed)
RNA 1: B4 RNA 1
RNA 2: GGGAAUGGAUCCACAUCUACGAAUUCGUUUCUAUGAUCUGAAAUAUUCAGGUCUGCAGAUCGGAAGAGCACACGU
B9: target 3 insU 3' of 16,insU 3' of 3 (mixed)
RNA 1: B4 RNA 1
RNA 2: B5 RNA 2 with U33G, G34A, A35U, U36C, C37U, A52U
B10: target 3 insU 3' of 16,insU 3' of 1 (mixed)
RNA 1: B4 RNA 1
RNA 2: B5 RNA 2 with U33G, G34A, A35U, U36C, C37U, A52C, C53U
B11: target 3 G4A,A11G (mixed)
RNA 1: B4 RNA 1
RNA 2: B4 RNA 2 with C30U, U36C, A41G, G48A
B12: target 3 U2G,U7A (mixed)
RNA 1: B4 RNA 1
RNA 2: B4 RNA 2 with C30U, U36C, U45A, U50G
B13: target 3 U2A,A18G (mixed)
RNA 1: B4 RNA 1
RNA 2: B4 RNA 2 with C30U, A34G, U36C, U50A
B14: target 3 insU 3' of 9,insC 3' of 8 (mixed)
RNA 1: B4 RNA 1
RNA 2: B6 RNA 2 with A47U, G48C, C49A, U51G, G52U
B15: target 3 insG 3' of 2,insC 3' of 2 (mixed)
RNA 1: B4 RNA 1
RNA 2: B6 RNA 2 with C49G, G50U, U51G, G52C
B16: target 3 C1G,A12G (mixed)
RNA 1: B4 RNA 1
RNA 2: B4 RNA 2 with C30U, U36C, A40G, C51G
B17: target 3 U2A,G4C (mixed)
RNA 1: B4 RNA 1
RNA 2: B4 RNA 2 with C30U, U36C, G48C, U50A
B18: target 3 del21,del22 (mixed)
RNA 1: B4 RNA 1
RNA 2: GGGAAUGGAUCCACAUCUACGAAUUCGUUUGAUCUGAAAUAUUCAGGUCUGCAGAUCGGAAGAGCACACGU
B19: target 3 insC 3' of 8,insC 3' of 3 (mixed)
RNA 1: B4 RNA 1
RNA 2: B6 RNA 2 with U45C, C46U, A47C, G48A, C49G, U51C, G52U
B20: target 3 insA 3' of 6,insC 3' of 4 (mixed)
RNA 1: B4 RNA 1
RNA 2: B6 RNA 2 with G48A, C49G, G50C, U51G, G52U
B21: target 3 G4A,C6G (mixed)
RNA 1: B4 RNA 1
RNA 2: B4 RNA 2 with C30U, U36C, C46G, G48A
B22: target 3 del4,del5 (mixed)
RNA 1: B4 RNA 1
RNA 2: GGGAAUGGAUCCACAUCUACGAAUUCGUUUUUGAUCUGAAAUAUUCGUCUGCAGAUCGGAAGAGCACACGU
B23: target 3 C1A,A9G (mixed)
RNA 1: B4 RNA 1
RNA 2: B4 RNA 2 with C30U, U36C, A43G, C51A
B24: target 3 C1G,U22C (mixed)
RNA 1: B4 RNA 1
RNA 2: B4 RNA 2 with U36C, C51G
B25: target 3 U22C (mixed)
RNA 1: B4 RNA 1
RNA 2: B4 RNA 2 with U36C
B26: target 3 C1U,A12C (mixed)
RNA 1: B4 RNA 1
RNA 2: B4 RNA 2 with C30U, U36C, A40C, C51U
B27: target 3 insG 3' of 9,insC 3' of 8 (mixed)
RNA 1: B4 RNA 1
RNA 2: B6 RNA 2 with U44G, A47U, G48C, C49A, U51G, G52U

This data set deals with T1, EsCas13d, nuclease-dead (Eubacterium siraeum, UniProt B0MS50, R295A;H300A;R849A;H854A).
T1 sequence: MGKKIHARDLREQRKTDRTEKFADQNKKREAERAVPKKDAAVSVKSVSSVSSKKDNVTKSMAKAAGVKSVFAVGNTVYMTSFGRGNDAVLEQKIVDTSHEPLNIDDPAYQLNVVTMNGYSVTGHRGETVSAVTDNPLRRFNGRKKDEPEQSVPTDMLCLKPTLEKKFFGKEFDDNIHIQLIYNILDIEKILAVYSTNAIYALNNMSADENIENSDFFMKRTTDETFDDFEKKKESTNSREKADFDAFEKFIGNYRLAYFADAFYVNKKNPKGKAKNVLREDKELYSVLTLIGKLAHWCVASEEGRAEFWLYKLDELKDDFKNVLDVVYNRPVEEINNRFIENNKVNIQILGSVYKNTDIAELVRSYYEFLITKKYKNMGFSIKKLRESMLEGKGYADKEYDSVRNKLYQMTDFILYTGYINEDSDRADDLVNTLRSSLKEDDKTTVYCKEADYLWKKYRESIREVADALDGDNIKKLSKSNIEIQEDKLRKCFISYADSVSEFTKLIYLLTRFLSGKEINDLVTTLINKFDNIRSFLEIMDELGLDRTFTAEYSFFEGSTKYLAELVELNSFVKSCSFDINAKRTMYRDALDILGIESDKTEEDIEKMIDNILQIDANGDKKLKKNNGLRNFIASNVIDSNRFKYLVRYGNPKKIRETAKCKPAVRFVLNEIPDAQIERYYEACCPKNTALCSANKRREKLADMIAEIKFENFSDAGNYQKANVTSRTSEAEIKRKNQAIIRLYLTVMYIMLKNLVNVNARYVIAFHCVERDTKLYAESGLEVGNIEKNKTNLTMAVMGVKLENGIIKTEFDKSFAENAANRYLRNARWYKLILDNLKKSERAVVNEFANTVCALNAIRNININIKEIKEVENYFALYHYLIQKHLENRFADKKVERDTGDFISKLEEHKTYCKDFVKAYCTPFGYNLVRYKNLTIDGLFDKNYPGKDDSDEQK
Nature of the data set: crRNA (strand 1, pre-loaded); Mg2+; 40 mM Tris-HCl pH 7.5, 150 mM NaCl, 6 mM MgCl2, 1 mM DTT, 0.1% Tween-20, 0.2 mg/ml BSA; 25 C; 10 min per concentration, then washed. As to conditions: tags: His6-TwinStrep-SUMO cleaved; N-terminal SNAP kept (SNAP-Surface 488); label: 3' end held by stalled T7 RNA polymerase.
With B1, the Kd (in general, a measure of binding affinity in units of concentration) worked out at 12 ± 0.7 nM.
The value for B2 was 11.1 ± 0.7 nM; that for B3 was 32.7 ± 2.9 nM; that for B4 was 81.5 ± 30 nM.
In the case of B5 it was 26.2 ± 2.5 nM.
In the case of B6 it was 50.5 ± 9.5 nM.
The molecule B7 gave a Kd of 29.6 ± 2.7 nM.
In the case of B8 it was 43 ± 5 nM; in that of B9, 29 ± 5 nM; in that of B10, 39.5 ± 6.5 nM.
B11 displayed a Kd of 36 ± 5 nM.
The molecule B12 had a dissociation constant (Kd) of 6.55 ± 0.85 nM.
B13 came in with a Kd of 55.5 ± 7.5 nM. This Kd is about 8.5-fold higher than that of the molecule before.
In the case of B14 it was 81.5 ± 13 nM.
As for B15, the Kd was found to be 68.5 ± 10.5 nM.
Take B16: binding was put at a Kd of 50 ± 9 nM.
The value for B17 was 5.05 ± 0.55 nM.
In the case of B18 it was 13.4 ± 1.7 nM; in that of B19, 77 ± 23 nM.
The value for B20 was 8.4 ± 0.95 nM.
B21: the Kd was 42 ± 4.5 nM.
In the case of B22 it was 24.6 ± 2.15 nM; in that of B23, 61 ± 16.5 nM.
Take B24: the affinity, expressed as Kd, was 41 ± 8 nM.
The value for B25 was 13.8 ± 1.8 nM; that for B26 was 86.5 ± 17 nM; that for B27 was 90 ± 16.5 nM.
